Results from article PMC3017539, “Crystal Structure of Escherichia coli CusC, the Outer Membrane Component of a Heavy Metal Efflux Pump” (PLoS ONE, 2011).

Target: the molecule itself
Experiment: SEC; gel filtration (Superdex-200) in 10 mM Na-acetate/50 mM NaCl/10% glycerol/0.05% DDM pH 5; oligomer judged from the elution position

B1: CusC, the outer membrane component of the Cus heavy metal efflux pump (natural protein, E. coli, UniProt P77211 18-457, looked up)
chain: CSLAPDYQRPAMPVPQQFSLSQNGLVNAADNYQNAGWRTFFVDNQVKTLISEALVNNRDLRMATLKVQEARAQYRLTDADRYPQLNGEGSGSWSGNLKGNTATTREFSTGLNASFDLDFFGRLKNMSEAERQNYLATEEAQRAVHILLVSNVAQSYFNQQLAYAQLQIAEETLRNYQQSYAFVEKQLLTGSSNVLALEQARGVIESTRSDIAKRQGELAQANNALQLLLGSYGKLPQAQTVNSDSLQSVKLPAGLSSQILLQRPDIMEAEHALMAANANIGAARAAFFPSISLTSGISTASSDLSSLFNASSGMWNFIPKIEIPIFNAGRNQANLDIAEIRQQQSVVNYEQKIQNAFKEVADALALRQSLNDQISAQQRYLASLQITLQRARALYQHGAVSYLEVLDAERSLFATRQTLLDLNYARQVNEISLYTALGGG
modifications: three partial acyl chains attached to Cys1 (most likely triacylated at the N-terminal cysteine with N-acyl and S-diacylglycerol functions)
notes: CusC of Escherichia coli, gene for the full-length protein amplified from DH5alpha cells; residues 21-31 disordered in the crystal. numbers count on: the mature protein; Hexa-histidine tag introduced after the C-terminal residue; no cleavage is described; also called outer membrane factor (OMF) protein CusC; source: E. coli C43 (DE3), over-expressed, purified from membranes (nickel column, …)
- stoichiometry N: 3
